Measured values from US20140023585A1, “177 LUTETIUM-LABELED BOMBESIN ANALOGS FOR RADIOTHERAPY” (UNIVERSITATSSPITAL BASEL, priority 2010, published 2014).

Assay: in vivo
Settings: male, NMRI nu/nu, mouse, iv, total radioactivity; for tissue uptake at 1 h: 1.0 h p.a.; for tissue uptake at 4 h: 4.0 h p.a.; for tissue uptake at 24 h: 24.0 h p.a.; for tissue uptake at 48 h: 48.0 h p.a.; for tissue uptake at 72 h: 72.0 h p.a.
Procedure: Biodistribution was investigated in NMRI nude mice bearing subcutaneous PC-3 tumors in the right hind limb at different time-points. Body weight of the male mice was approx. 30 g, 3 animals were investigated per time-point. After injecting an intravenous dose into the tail vein, mice were sacrificed at indicated time points and dissected organs were analyzed by radioactive counting. An administration dose of 100 μL was applied per animal with a mean activity of 86 kBq.
At indicated time points urine and feces were quantitatively collected. At the same time points, animals were sacrificed and exsanguinations under isoflurane anesthesia and the following organs and tissues were removed for measurement of [^177Lu] using the gamma-counter: spleen, liver, gallbladder, kidneys, lung, femur, heart, brain, fat, thyroid, muscle, skin, blood, tail, stomach (without content), prostate, intestine (with content), pancreas, adrenals, and the remaining body (designated as carcass).
Whole organs and tissues or aliquots were weighted and measured in a gamma-counter for radioactivity. In order to get the amount of total radioactivity administered in each animal (=100%) 3 aliquots (100 μL each) of the injected solution were always measured in parallel. The results of the biodistribution and excretion are reported as percent of injected dose per gram of tissue (% ID/g) and percent of injected dose per organ (% ID), respectively. All data are given as mean value±standard deviation, which were calculated by using all animals per time and sample.

[1] = pancreas, 86 kBq per animal, % ID/g Pancreas
[2] = stomach (without content), 86 kBq per animal, % ID/g Stomach
[3] = stomach (without content), 86 kBq
[4] = tail, 86 kBq per animal, % ID/g Tail

CC(C)C[C@H](NC(=O)C[C@H](O)[C@H](CC(C)C)NC(=O)[C@H](Cc1c[nH]cn1)NC(=O)CNC(=O)[C@@H](NC(=O)[C@H](C)NC(=O)[C@H](Cc1c[nH]c2ccccc12)NC(=O)[C@H](CCC(N)=O)NC(=O)[C@@H](Cc1ccccc1)NC(=O)CN1CCC(NC(=O)CN2CCN(CC(=O)O)CCN(CC(=O)O)CCN(CC(=O)O)CC2)CC1)C(C)C)C(N)=O [compound 2, [^177Lu]-DOTA-4-amino-1-carboxymethylpiperidine-D-Phe-Gln-Trp-Ala-Val-Gly-His-Sta-Leu-NH2, metal not drawn]
tissue uptake dose at 24 h (lung, 86 kBq per animal): 0.005 %ID
tissue uptake dose at 48 h (lung, 86 kBq per animal): 0.013 %ID
tissue uptake at 1 h (lung, 86 kBq, % ID/g Lung): 0.364 %ID/g
tissue uptake at 4 h (lung, 86 kBq, % ID/g Lung): 0.083 %ID/g
tissue uptake at 24 h (lung, 86 kBq, % ID/g Lung): 0.019 %ID/g
tissue uptake at 48 h (lung, 86 kBq, % ID/g Lung): 0.048 %ID/g
tissue uptake dose at 1 h (muscle, 86 kBq per animal): 0.014 %ID
tissue uptake dose at 4 h (muscle, 86 kBq per animal): 0.003 %ID
tissue uptake at 1 h (muscle, 86 kBq, % ID/g Muscle): 0.072 %ID/g
tissue uptake at 4 h (muscle, 86 kBq, % ID/g Muscle): 0.02 %ID/g
tissue uptake dose at 1 h (organs (sum), 86 kBq): 20.1 %ID
tissue uptake dose at 4 h (organs (sum), 86 kBq): 9.64 %ID
tissue uptake dose at 24 h (organs (sum), 86 kBq): 3.64 %ID
tissue uptake dose at 48 h (organs (sum), 86 kBq): 2.09 %ID
tissue uptake dose at 72 h (organs (sum), 86 kBq): 1.37 %ID
tissue uptake at 1 h [1]: 18.7 %ID/g
tissue uptake at 4 h [1]: 5.17 %ID/g
tissue uptake at 24 h [1]: 0.579 %ID/g
tissue uptake at 48 h [1]: 0.288 %ID/g
tissue uptake at 72 h [1]: 0.206 %ID/g
tissue uptake dose at 1 h (pancreas, 86 kBq): 8.03 %ID
tissue uptake dose at 4 h (pancreas, 86 kBq): 1.74 %ID
tissue uptake dose at 24 h (pancreas, 86 kBq): 0.196 %ID
tissue uptake dose at 48 h (pancreas, 86 kBq): 0.076 %ID
tissue uptake dose at 72 h (pancreas, 86 kBq): 0.046 %ID
tissue uptake at 1 h (prostate, 86 kBq per animal, % ID/g Prostate): 0.289 %ID/g
tissue uptake dose at 1 h (prostate, 86 kBq): 0.003 %ID
tissue uptake dose at 1 h (skin, 86 kBq per animal): 1.81 %ID
tissue uptake dose at 4 h (skin, 86 kBq per animal): 0.515 %ID
tissue uptake dose at 24 h (skin, 86 kBq per animal): 0.162 %ID
tissue uptake dose at 48 h (skin, 86 kBq per animal): 0.246 %ID
tissue uptake dose at 72 h (skin, 86 kBq per animal): 0.152 %ID
tissue uptake at 72 h (skin, 86 kBq per animal, % ID/g Skin): 0.04 %ID/g
tissue uptake at 1 h (skin, 86 kBq, % ID/g Skin): 0.409 %ID/g
tissue uptake at 4 h (skin, 86 kBq, % ID/g Skin): 0.145 %ID/g
tissue uptake at 24 h (skin, 86 kBq, % ID/g Skin): 0.055 %ID/g
tissue uptake at 48 h (skin, 86 kBq, % ID/g Skin): 0.074 %ID/g
tissue uptake dose at 1 h (spleen, 86 kBq per animal): 0.034 %ID
tissue uptake dose at 4 h (spleen, 86 kBq per animal): 0.015 %ID
tissue uptake dose at 24 h (spleen, 86 kBq per animal): 0.005 %ID
tissue uptake dose at 48 h (spleen, 86 kBq per animal): 0.003 %ID
tissue uptake at 1 h (spleen, 86 kBq, % ID/g Spleen): 0.284 %ID/g
tissue uptake at 4 h (spleen, 86 kBq, % ID/g Spleen): 0.152 %ID/g
tissue uptake at 24 h (spleen, 86 kBq, % ID/g Spleen): 0.06 %ID/g
tissue uptake at 48 h (spleen, 86 kBq, % ID/g Spleen): 0.056 %ID/g
tissue uptake at 1 h [2]: 2.56 %ID/g
tissue uptake at 4 h [2]: 1.36 %ID/g
tissue uptake at 24 h [2]: 0.081 %ID/g
tissue uptake at 48 h [2]: 0.042 %ID/g
tissue uptake at 72 h [2]: 0.02 %ID/g
tissue uptake dose at 1 h [3]: 0.614 %ID
tissue uptake dose at 4 h [3]: 0.321 %ID
tissue uptake dose at 24 h [3]: 0.018 %ID
tissue uptake dose at 48 h [3]: 0.01 %ID
tissue uptake dose at 72 h [3]: 0.005 %ID
tissue uptake dose at 1 h (tail, 86 kBq per animal): 1.84 %ID
tissue uptake dose at 4 h (tail, 86 kBq per animal): 0.694 %ID
tissue uptake dose at 24 h (tail, 86 kBq per animal): 0.337 %ID
tissue uptake dose at 48 h (tail, 86 kBq per animal): 0.15 %ID
tissue uptake at 1 h [4]: 2.23 %ID/g
tissue uptake at 4 h [4]: 0.953 %ID/g
tissue uptake at 24 h [4]: 0.436 %ID/g
tissue uptake at 48 h [4]: 0.194 %ID/g
tissue uptake at 72 h [4]: 0.313 %ID/g
tissue uptake dose at 72 h (tail, 86 kBq): 0.263 %ID
tissue uptake dose at 1 h (thyroid, 86 kBq per animal): 0.006 %ID
tissue uptake at 1 h (thyroid, 86 kBq, % ID/g Thyroid): 0.185 %ID/g
tissue uptake dose at 1 h (tumor, 86 kBq per animal): 1.12 %ID
tissue uptake dose at 4 h (tumor, 86 kBq per animal): 3.07 %ID
tissue uptake dose at 24 h (tumor, 86 kBq per animal): 2.19 %ID
tissue uptake dose at 48 h (tumor, 86 kBq per animal): 1.05 %ID
tissue uptake dose at 72 h (tumor, 86 kBq per animal): 0.55 %ID
tissue uptake at 1 h (tumor, 86 kBq, % ID/g Tumor): 5.6 %ID/g
tissue uptake at 4 h (tumor, 86 kBq, % ID/g Tumor): 8.1 %ID/g
tissue uptake at 24 h (tumor, 86 kBq, % ID/g Tumor): 6.06 %ID/g
tissue uptake at 48 h (tumor, 86 kBq, % ID/g Tumor): 3.58 %ID/g
tissue uptake at 72 h (tumor, 86 kBq, % ID/g Tumor): 2.49 %ID/g
dose excreted at 1 h (urine, 86 kBq): 71.8%
dose excreted at 4 h (urine, 86 kBq): 63.1%
dose excreted at 24 h (urine, 86 kBq): 76.3%
dose excreted at 48 h (urine, 86 kBq): 74%
dose excreted at 72 h (urine, 86 kBq): 63.7%
